The data set deals with E. necator. The data set can be described thus: Leaf disc assay, dry inoculum (settling tower), decrease in disease severity / hyphal growth (Example 2). Conditions: decrease in disease severity (hyphal growth) relative to untreated control, value ± SE; for % decrease =/− SE TP1: time point 1 (untreated control hyphal growth ≥50%); for % decrease =/− SE TP2: time point 2.

The record followed here is patent US12077763B2, “RNA-based control of powdery mildew” (Greenlight Biosciences, Inc., priority 2021, dated 2024).

B1: GS3360 (nucleic acid)
sense: CAGUGCUCUCGCAGCAGGCCAUUUAGUCAAGAGCCAUAUGGCACAUAACAGAAGUGCUCCUAUUACAAGAAGUAAUACACCUGCUCAGAUUAGCACACACCCAUCAAUGAUAUCAACAAAUAGCAUGAGAGAAAAAUAUUGAGAUUUGAAAUUCUAAUUGUGUAAAUGAGCUCAGCUAUAUUGAAAAUAAAUUGGUAAUCUAAUAUAGAGGUAGAACUAGUUCGAUUUUUAUACUCAUUAAAAAAAGGAACUAAUAUUGGUAAAGGGUUAAGCUAUGAAAUUAGCUAUCCUUUUUUUUCCUAUUUAUUGAAAA
antisense: UUUUCAAUAAAUAGGAAAAAAAAGGAUAGCUAAUUUCAUAGCUUAACCCUUUACCAAUAUUAGUUCCUUUUUUUAAUGAGUAUAAAAAUCGAACUAGUUCUACCUCUAUAUUAGAUUACCAAUUUAUUUUCAAUAUAGCUGAGCUCAUUUACACAAUUAGAAUUUCAAAUCUCAAUAUUUUUCUCUCAUGCUAUUUGUUGAUAUCAUUGAUGGGUGUGUGCUAAUCUGAGCAGGUGUAUUACUUCUUGUAAUAGGAGCACUUCUGUUAUGUGCCAUAUGGCUCUUGACUAAAUGGCCUGCUGCGAGAGCACUG
For the molecule B1, the “% decrease =/− SE TP1” value came to 36 ± 4% and the “% decrease =/− SE TP2” value is on record as 30 ± 5%.

B2: GS1799: dsRNA trigger SEQ ID NO 193; gene target Transposon Tf2-6 polyprotein (nucleic acid)
DNA: GTAGCGAGGATGGACACTGGAGAACGGTTCGAAGTATACTTGACAAATTACGAAAAGCTGGGCTATATCTCGATATTGATAAATGTGAGTTTTTATGTAAAGAAGTCAAATATTTGGGGTTTATTGTGAAAGCTGGTAAAAGTGTGGCCGTTGATCAATCGAAGGTGAAGGCCATTCTGGAGTGGGAAGCGCCAACTACGGTTAGAGGGGTAAGATCATTTCTCGGATTCGCCAACTTCTATCGGTGCTTTATTAAGGGATTTTCCGACATTACATCACCCCTAGTTGCCCTGACGAAAAAAAAGGTGGAATGGCGATGGGGGCGTGACGAAAATGATGCGTTTGAAAGGCTCAAAGAAATATTCTCATCACAGCCTGTTTTAGCACAGTGGGATCCAGAGAAGGAAACAATTTTGGAAGCTGATAGTTCTGGCTTTGCAATTGGTGGTTGTCTCTCACAGGTGGATGAACACGGCCAAATAAGACCTGTGGCTTATTTCTCGAAGAAGTTAAATAGTGCCGAAGCTAATTACCCAATCCATGACAAAGAATTACACGCAATAGTCACGTGCTTAAAAGAATGGAAACCAGAGCTAAT
In the case of B2, the “% decrease =/− SE TP1” value is listed as 16 ± 5% and the “% decrease =/− SE TP2” value came out at 8 ± 6%.

B3: GS3361 (nucleic acid)
sense: AAUAAGUGUCUGGAUUGUUGAAUGGGAUUCUUUUUAGUCGAUCAAUUUCAAUUAACUCAUAACGCAGAAAUUUCUUAAAAUUGAACGAUUUAUAGGAACCGAUGUGAAAUUUUCUUCAAUCUCCAUGUCAAUCGCAGAUGUGGGCAAAAAAGAUUGGGAAGAGAAUUCUUAGUUAUAUUUCAUUUGAAUACUAUUGGGGUAAUGCAUGUCCAAAGAGUCUCGUACCAAGAGAUACCUUUAUCUGGAAAUAAUUAGAAGAUUUACCCGUCUUACCUUGAUGAAUUGUGUGUUAGAGAUACACCAUGGCUAAGAUAUUAAUAUCUAUUUAGUUUGGGAAGUUGAUGACGAUACAUCACAGUUCUCUGUAAAUUUUGUUAUUUCCUCUAAUAUCAUUAA
antisense: UUAAUGAUAUUAGAGGAAAUAACAAAAUUUACAGAGAACUGUGAUGUAUCGUCAUCAACUUCCCAAACUAAAUAGAUAUUAAUAUCUUAGCCAUGGUGUAUCUCUAACACACAAUUCAUCAAGGUAAGACGGGUAAAUCUUCUAAUUAUUUCCAGAUAAAGGUAUCUCUUGGUACGAGACUCUUUGGACAUGCAUUACCCCAAUAGUAUUCAAAUGAAAUAUAACUAAGAAUUCUCUUCCCAAUCUUUUUUGCCCACAUCUGCGAUUGACAUGGAGAUUGAAGAAAAUUUCACAUCGGUUCCUAUAAAUCGUUCAAUUUUAAGAAAUUUCUGCGUUAUGAGUUAAUUGAAAUUGAUCGACUAAAAAGAAUCCCAUUCAACAAUCCAGACACUUAUU
For B3, the “% decrease =/− SE TP1” value came to 16 ± 3%.
